Assays:
Assay in all cases: crystal structure
[1] = molecular target: JCPyV Mad-1 VP1 pentamer (wild type, amino acids 22 to 289) (JC polyomavirus (JCPyV), strain Mad-1)
[2] = molecular target: JCPyV Mad-1 VP1 pentamer L54F (amino acids 22 to 289) (JC polyomavirus (JCPyV), strain Mad-1)
[3] = molecular target: JCPyV Mad-1 VP1 pentamer S268F (amino acids 22 to 289) (JC polyomavirus (JCPyV), strain Mad-1)
[4] = molecular target: JCPyV Mad-1 VP1 pentamer S268Y (amino acids 22 to 289) (JC polyomavirus (JCPyV), strain Mad-1)

JCPyV Mad-1 VP1 pentamer (wild type, amino acids 22 to 289) (domain or fragment)
stoichiometry N [1]: 5

JCPyV Mad-1 VP1 pentamer L54F (amino acids 22 to 289) (domain or fragment)
stoichiometry N [2]: 5

JCPyV Mad-1 VP1 pentamer S268F (amino acids 22 to 289) (domain or fragment)
stoichiometry N [3]: 5

JCPyV Mad-1 VP1 pentamer S268Y (amino acids 22 to 289) (domain or fragment)
stoichiometry N [4]: 5

From paper PMC3685208
